One molecule from patent US20250346685A1 (published 2025) can be followed below.

Experiment [1] deals with T1, human CD3εγ-Fc heterodimer (human).
T1 construct: also called human CD3εγ recombinant protein; human CD3εγ protein
T1 chain 1: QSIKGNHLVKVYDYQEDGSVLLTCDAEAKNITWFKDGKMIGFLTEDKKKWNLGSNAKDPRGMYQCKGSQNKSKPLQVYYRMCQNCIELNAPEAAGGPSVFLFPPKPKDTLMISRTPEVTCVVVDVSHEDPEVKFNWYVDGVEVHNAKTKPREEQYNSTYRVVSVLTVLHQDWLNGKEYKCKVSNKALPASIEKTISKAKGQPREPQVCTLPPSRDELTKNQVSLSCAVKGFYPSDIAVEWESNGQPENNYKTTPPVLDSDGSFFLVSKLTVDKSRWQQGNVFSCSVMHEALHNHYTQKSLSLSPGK
T1 chain 2: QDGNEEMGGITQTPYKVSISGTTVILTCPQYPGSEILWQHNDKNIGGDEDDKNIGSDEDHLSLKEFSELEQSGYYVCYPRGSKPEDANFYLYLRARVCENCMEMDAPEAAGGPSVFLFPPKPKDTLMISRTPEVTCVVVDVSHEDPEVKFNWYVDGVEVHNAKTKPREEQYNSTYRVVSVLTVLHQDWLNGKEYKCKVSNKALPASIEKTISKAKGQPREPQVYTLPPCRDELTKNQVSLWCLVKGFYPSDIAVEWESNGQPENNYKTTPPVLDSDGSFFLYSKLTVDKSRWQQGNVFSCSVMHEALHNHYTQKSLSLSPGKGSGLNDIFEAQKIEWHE
Put plainly: SPR (Biacore T200), antigen amine-coupled on CM5 chip, antibody as analyte, 1:1 model. As for the experimental part:
10 μg/mL human or cynomolgus monkey BCMA or CD3εγ recombinant antigen was bound to a CM5 chip (GE healthcare) by amino conjugating, while the amount of antigen bound was controlled to approximately 200 RU. After baseline plateau, gradient diluted antibodies (7 gradients of 2-fold dilutions from 10 μg/mL) were flowed through the chip at a flow rate of 30 μL/min for a binding time of 350 seconds and a dissociation time of 600 seconds. Kinetic constants were fitted using Biacore T200 evaluation software with a 1:1 binding model.

Experiment [2] concerns the target T2, human CD3 on T cells (Jurkat cells; human peripheral blood CD4+ and CD8+ T-cells) (human, UniProt P07766 23-207).
T2 construct: whole, on cells; also called CD4T; CD4 + T
Put plainly: flow cytometry on human peripheral blood CD8+ T-cells. As for the experimental part: (§1) Fresh human peripheral blood was taken and PBMC was isolated by Ficoll. Paque Plu (GE, 17-1440-03). PBMC was adjusted to 5×10⁵ cells/mL with 4% calf serum (Hyclone, SH30626.06), 100 μL/well was added to a 96-well U-plate, the supernatant was centrifuged off and 100 μL of gradient diluted antibody (with starting concentration of 1800 nM, 3-fold dilution, 10 gradients) was added to each well and incubated for 60 min at 4° C. 50 μL/well of Alexa Fluro647 labeled goat anti-human IgG Fc (1:300 dilution) was added to the secondary antibody, with ice bath for 20 min, and 50 μL/well PI added after washing once, incubated for 5 min, and flow cytometer (BD C6) was used for detection. The control antibody REGN5458 was synthesized and prepared according to US20200024356.
On the technique in general: A flow cytometer gives signals particle by particle.

In experiment [3] the target is T2, human CD3 on T cells (Jurkat cells; …). Description: flow cytometry on human peripheral blood CD4+ T-cells. As for the experimental part: as §1

B1: BCMA × CD3 κλ004 (bispecific antibody, human IgG4 S228P, kappa, lambda)
light 1: DIVLTQSPASLAVSPGQRATITCRASKSVTTSGYSYIHWYQKKPGQPPKLLIYLASDLEAGVPARFSGSGSGTDFTLTINPVEAEDTANYYCQHSRELPWTFGQGTKVEIKRTVAAPSVFIFPPSDEQLKSGTASVVCLLNNFYPREAKVQWKVDNALQSGNSQESVTEQDSKDSTYSLSSTLTLSKADYEKHKVYACEVTHQGLSSPVTKSFNRGEC
heavy 1: QVQLVQSGSELKKPGASVKVSCKASGYIFTNFGMNWVREAPGQGLEWMGWINTYTGEQIYADGFTGRFVFSLDTSASTAYLQISSLKAEDTAVYFCARGEIYYGYDVGFVYWGQGTLVTVSSASTKGPSVFPLAPCSRSTSESTAALGCLVKDYFPEPVTVSWNSGALTSGVHTFPAVLQSSGLYSLSSVVTVPSSSLGTKTYTCNVDHKPSNTKVDKRVESKYGPPCPPCPAPEFEGGPSVFLFPPKPKDTLMISRTPEVTCVVVDVSQEDPEVQFNWYVDGVEVHNAKTKPREEQFNSTYRVVSVLTVLHQDWLNGKEYKCKVSNKGLASSIEKTISKAKGQPREPQVCTLPPSQEEMTKNQVSLSCAVKGFYPSDIAVEWESNGQPENNYKTTPPVLDSDGSFFLVSKLTVDKSRWQEGNVFSCSVMHEALHNHYTQKSLSLSLGK
light 2: QAVVTQEPSLTVSPGGTVTLTCRSSTGAVTTSNYANWVQEKPGQAPRGLIGGTNKRAPWTPARFSGSLLGGKAALTITGAQAEDEAEYYCVLWYSNLWVFGGGTKLTVLGQPKAAPSVTLFPPSSEELQANKATLVCLISDFYPGAVTVAWKADSSPVKAGVETTTPSKQSNNKYAASSYLSLTPEQWKSHRSYSCQVTHEGSTVEKTVAPTECS
heavy 2: EVQLVESGGGLVQPGGSLRLSCAASGFTFNTYAMNWVRKAPGKGLEWVGRIRSKYNNYATYYADSVKDRFTISRDDSKNSLYLQMNSLKTEDTAVYYCVRHGNFGNSYVSWFAYWGQGTLVTVSSASTKGPSVFPLAPCSRSTSESTAALGCLVKDYFPEPVTVSWNSGALTSGVHTFPAVLQSSGLYSLSSVVTVPSSSLGTKTYTCNVDHKPSNTKVDKRVESKYGPPCPPCPAPEFEGGPSVFLFPPKPKDTLMISRTPEVTCVVVDVSQEDPEVQFNWYVDGVEVHNAKTKPREEQFNSTYRVVSVLTVLHQDWLNGKEYKCKVSNKGLASSIEKTISKAKGQPREPQVYTLPPCQEEMTKNQVSLWCLVKGFYPSDIAVEWESNGQPENNYKTTPPVLDSDGSFFLYSKLTVDKSRWQEGNVFSCSVMHEALHNHYTQKSLSLSLGK
notes: also called BCMA×CD3 κλ bispecific antibody
The term Kd denotes a measure of binding affinity in units of concentration. Read a low Kd as tighter binding. The EC50 is the concentration giving half of the maximal effect. B1 registered an equilibrium dissociation constant (Kd) in experiment [1] of 32 nM. Further, the concentration for a half-maximal effect (EC50) was found to be 67 nM in experiment [2] and 79 nM in experiment [3].
